# Laboratory results taken from US20190248900A1 (Y BIOLOGICS, published 2019).
# Residue numbers refer to the chain shown, from its start.
# B1: PD1-49A2(A/2B9) (antibody, V domains shown)
# VH: QVQLVESGGGVVQPGRSLRLSCAASGFTFLRYAMHWVRQAPGKGLEWVAVISYDGRYKYYADSVKGRFTISRDNSKNTLYLQMNSLRAEDTAVYYCTTTTFDSWGQGTLVTVSS
# VL: DIVMTQTPLSLPVTPGEAASISCRSSQSLLDSEDGNTYLDWYLQKPGQSPQLLIYTLSHRASGVPDRFSGSGSGTDFTLEISRVEAEDVGVYYCMQRRDFPFTFGQGTKVDIK
# notes: scFv-phage in the screening ELISA; whole IgG in the other assays; also called 49A2-2B9; 49A2 (2B9)
# B2: PD1-45D6(A/5B2) (antibody, V domains shown)
# VH: B1 VH with L30S, R31F, R56N, Y57D, T97V, T98P, D102E, S103Y
# VL: B1 VL with L11P, A18P, E33D, V110L
# notes: scFv-phage in the screening ELISA; whole IgG in the other assays; also called 45D6-5B2; PD1 45D6 5B2
# B3: PD1-62E1 (antibody, V domains shown)
# VH: QVQLVESGGDLVKPGRSLRLSCTGSGFTFGDHPLTWVRQIPGKGLEWVGFIRSKAYGETTEYAASVKGRFTISRDDSKSIAYLQMNSLRAEDTAVYYCASVSYCSGGSCYQGTFDYWGQGTLVTVSS
# VL: DIQMTQSPAILSLSPGERATLSCRASQSVTSDVAWYQHIRGQAPRLLIYDASNRASGIPARFSGGGSGTEFTLTISSLEPEDFAVYYCQQYNNWPLTFGGGTKVEIK
# Columns and labels:
# [1] = target: T1, PD-1-His (S1352, Y-Biologics) (UniProt Q15116 25-170, limits assumed); test: competition ELISA: PD-L2-Fc coated, PD-1-His as binder, antibody as competitor
# T1 construct: not shown: His tag
# Protocol: (§1) Human PD-1-Fc (S1420, Y-Biologics) or PD-L2-Fc (#10292-H02H, Sino) was added to wells of a 96-well immuno microplate (#439454, Thermo) and then washed three times with PBS containing 0.05% tween-20 (#P9416, Sigma-Aldrich), followed by allowing to stand in a cleaning solution containing 4% skim milk (#232120, Becton, Dickinson and Company) at room temperature for 1 hour to block non-specific binding. […] After the resulting product was subjected to the same washing method as above, the anti-Biotin-His antibody (#MA1-21315-BTIN, Thermo) diluted to 1:2000 was added to the well of the microplate, allowed to react at room temperature for 1 hour, streptavidin poly-HRP antibody (#21140, Pierce) diluted to 1:5000 was added to the well of microplate, reacted at room temperature for 1 hour and then washed in the same manner. 100 ul of a TMB substrate solution (#T0440, Sigma-Aldrich) was added to the reaction product, light was shielded, and the reaction product was allowed to stand at room temperature for 3 minutes, 50 μL of 2.5 M sulfuric acid (#S1478, Samchun) was added to stop the reaction, and absorbance was measured at 450 nm using a spectrophotometer (*GM3000, Glomax® Discover System Promega).
# rat PD1 protein = target: T2, rat PD1 protein (rat, UniProt D3ZIN8 25-169); test: SPR ProteOn XPR36; format for rat PD1 not described
# T2 construct: also called rat PD-1 proteins
# T2 sequence: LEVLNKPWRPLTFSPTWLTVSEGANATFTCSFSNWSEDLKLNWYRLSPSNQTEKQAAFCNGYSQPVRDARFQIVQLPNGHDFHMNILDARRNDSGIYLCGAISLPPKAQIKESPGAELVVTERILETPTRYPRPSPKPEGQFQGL
# monkey PD1 protein = target: T3, monkey PD1 protein (monkey); test: SPR ProteOn XPR36; format for monkey PD1 not described
# T3 construct: also called monkey PD-1 proteins
# [2] = target: T4, human PD-1 (NM_005018.2) over-expressed on cells (human, UniProt Q15116 25-288); test: cell-based or functional assay
# PD1-hFc [3] = target: T5, PD1-hFc (human, UniProt Q15116 25-170); test: ProteOn XPR36; legend names PD1-hFc, the sheet names the immobilised protein PD-1 C-his
# T5 construct: extracellular domain; also called PD1-hFc protein; Human PD-1-Fc (S1420, Y-Biologics)
# M7 = target: T6, M7; test: ELISA, 1 ug/ml
# T6 construct: also called PD1 mutant M7
# ITGA6-Fc = target: T7, ITGA6-Fc; test: ELISA, 1 ug/ml
# T7 construct: Fc fusion
# T7 sequence (P23229 whole entry, species assumed, looked up): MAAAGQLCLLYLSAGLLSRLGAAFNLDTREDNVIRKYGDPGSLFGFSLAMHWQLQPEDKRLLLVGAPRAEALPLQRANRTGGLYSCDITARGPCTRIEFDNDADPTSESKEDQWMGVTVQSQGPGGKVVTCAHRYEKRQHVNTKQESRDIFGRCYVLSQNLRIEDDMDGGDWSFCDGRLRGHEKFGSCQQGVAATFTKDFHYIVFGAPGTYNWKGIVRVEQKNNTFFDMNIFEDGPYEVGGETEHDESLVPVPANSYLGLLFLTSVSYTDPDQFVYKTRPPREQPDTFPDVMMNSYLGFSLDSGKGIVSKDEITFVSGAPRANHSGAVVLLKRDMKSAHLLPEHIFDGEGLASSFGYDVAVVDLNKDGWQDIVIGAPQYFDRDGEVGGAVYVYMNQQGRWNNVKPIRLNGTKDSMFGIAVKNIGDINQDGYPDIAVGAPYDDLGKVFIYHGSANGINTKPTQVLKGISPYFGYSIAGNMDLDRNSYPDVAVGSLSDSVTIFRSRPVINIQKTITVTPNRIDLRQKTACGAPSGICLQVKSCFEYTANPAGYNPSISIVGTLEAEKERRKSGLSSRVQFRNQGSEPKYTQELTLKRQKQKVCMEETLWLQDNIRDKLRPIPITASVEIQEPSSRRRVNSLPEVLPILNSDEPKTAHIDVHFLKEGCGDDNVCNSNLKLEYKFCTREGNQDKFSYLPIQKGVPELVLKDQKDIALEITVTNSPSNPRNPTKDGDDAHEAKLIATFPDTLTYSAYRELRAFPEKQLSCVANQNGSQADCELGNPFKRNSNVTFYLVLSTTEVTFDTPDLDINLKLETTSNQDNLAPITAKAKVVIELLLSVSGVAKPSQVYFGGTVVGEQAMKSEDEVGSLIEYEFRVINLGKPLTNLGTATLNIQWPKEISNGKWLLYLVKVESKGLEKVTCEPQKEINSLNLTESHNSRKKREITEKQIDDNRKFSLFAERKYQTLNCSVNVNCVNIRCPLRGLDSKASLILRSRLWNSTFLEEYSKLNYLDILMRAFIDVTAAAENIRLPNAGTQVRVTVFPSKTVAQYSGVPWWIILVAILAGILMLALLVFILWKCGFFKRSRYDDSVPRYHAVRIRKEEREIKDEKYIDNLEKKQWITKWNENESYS
# M11 = target: T8, M11; test: ELISA, 1 ug/ml
# T8 construct: also called PD1 mutant M11
# PD1-hFc [4] = target: T5, PD1-hFc; test: SPR ProteOn XPR36, PD1-hFc immobilised, antibody as analyte
# Protocol: A ProteOn XPR36 (BioRad) instrument was used. The GLC sensor chip (BioRad) was mounted on the instrument and washed with PBST buffer, and the carboxymethyldextran surface was activated with an EDC/sulfo-NHS mixed solution. PD1-hFc dissolved at a concentration of 5 ug/ml in a 10 mM sodium acetate buffer solution (pH 5.0) was injected and immobilized on the GLC sensor chip.
# In order to deactivate the activated carboxyl groups that remain unreacted with the PD1 protein, 1 M ethanolamine was flowed and 10 mM glycine (pH 2.0) was injected in order to wash proteins that remain unbound to the sensor chip.
# The equilibrium dissociation constant (KD) was calculated by plotting and fitting the sensogram data in the equilibrium state depending on concentration.
# [5] = target: T4, human PD-1 (NM_005018.2) over-expressed …; test: flow cytometry on cells over-expressing human PD-1, fit of Geometric Mean
# PD1-hFc [6] = target: T5, PD1-hFc; test: competition ELISA: PD1-Fc coated, PDL1-His as binder, antibody as competitor
# Protocol: as §1
# [7] = target: T4, human PD-1 (NM_005018.2) over-expressed …; test: cell-based or functional assay; remark: listed apart in the source
Binder,IC50 [1] [nM],Kd (rat PD1 protein) [nM],koff (rat PD1 protein) [s⁻¹],kon (rat PD1 protein) [M⁻¹ s⁻¹],Kd (monkey PD1 protein) [nM],koff (monkey PD1 protein) [s⁻¹],kon (monkey PD1 protein) [M⁻¹ s⁻¹],EC50 [2] [nM],Kd (PD1-hFc [3]) [nM],koff (PD1-hFc [3]) [s⁻¹],OD490 (M7),OD490 (ITGA6-Fc),OD490 (M11),kon (PD1-hFc [4]) [M⁻¹ s⁻¹],Bmax [5],Kd [5] [nM],IC50 (PD1-hFc [6]) [nM],"EC50 [nM], PD1/PD-L1 blockade bioassay [7] [nM]",Kd (PD1-hFc [4]) [nM],koff (PD1-hFc [4]) [s⁻¹]
B1,59,4.23,0.000625,148000,0.001,1e-07,185000,0.689,< 0.001,< 1e-07,0.083,0.1,0.433,377000,2900,6.2,6.38,1.23,,
B2,75.4,4.59,0.000863,188000,,,208000,1.66,,,0.238,0.124,0.446,332000,,,3.09,1.48,0.0582,1.93e-05
B3,314,,,,,,,,,,,,,,,,2.89,2.73,,
